Laboratory results: patent US20130109846A1 (published 2013)
Residue numbers refer to the chain shown, from its start.

B1: 1h-110 (other)
VL: DIQMTQSPSSLSASVGDRVTITCRASRDIGHMLNWYQQKPGKAPKLLIWFGSVLQSGVPSRFSGSGSGTDFTLTISSLQPEDFATYYCVQGRLRPPTFGQGTKVEIKR
B2: 1h-36 (other)
VL: DIQMTQSPSSLSASVGDRVTITCRASRDIALDLLWYQQKPGKAPKLLIKGWSGLQSGVPSRFSGSGSGTDFTLTISSLQPEDFATYYCAQGWGRPVTFGQGTKVEIKR
B3: 1h-108 (other)
VL: DIQMTQSPSSLSASVGDRVTITCRASQYIGTALNWYQQKPGKAPKLLIYRRSHLQSGVPSRFSGSGSGTDFTLTISSLQPEDFATYYCQQIALTPYTFGQGTKVEIKR
B4: 1h-108-5 (other)
VL: B3 VL with M4I, K45E, R51G, A84V
B5: 1h-80-2 (other)
VL: DIQMTQSPSSLSASVGDRVTITCRASQRIGSNLAWYQQKPGKAPKLLIYWASLLQSGVPSRFSGSGSETDFTLTISSLQPEDFATYYCQQTRSAPFAFGQGTKVEIKR
B6: 1h-87 (other)
VL: B5 VL with R28S, S31K, N32S, A51V, E68G, T91I, R92V, A94R, A97T
B7: 1h-83 (other)
VL: B5 VL with R28S, S31H, N32S, A34V, P59S, E68G, T91S, S93A, A97T
B8: 1h-81 (other)
VL: B5 VL with R28E, G30D, S31H, N32G, L53R, E68G, T91V, R92V, S93A, A97T
B9: 1h-80-7 (other)
VL: B5 VL with E68G, T69S, Q90E, A97T
B10: 1h-79 (other)
VL: B5 VL with R28P, S31H, N32S, L53T, E68G, T91M, R92L, S93R, A94T, A97T
B11: 1h-80 (other)
VL: B5 VL with E68G, A97T
B12: 1h-84 (other)
VL: DIQMTQSPSSLSASVGDRVTITCRASQSIGKGLMWYQQKPGKAPKLLIYWASMLQSGVPSRFSGSGSGTDFTLTISSLQPEDFATYYCQQSLRTPFTFGQGTEVEIKR
B13: 1h-203 (other)
VL: B12 VL with S28P, K31S, G32V, M34A, W50F, A51S, M53I, S91A, T94S, E103K
B14: 1h-112 (other)
VL: B12 VL with S28H, G30N, K31A, G32S, M34G, K45R, M53Q, S91M, L92V, E103K
B15: 1h-238 (other)
VL: B12 VL with S28H, G30N, K31A, G32S, M34G, M53Q, S91M, L92V, E103K
B16: 1h-85 (other)
VL: B12 VL with S28P, K31A, G32S, M34L, K45R, A51G, M53L, F83L, E103K
B17: 1h-82 (other)
VL: DIQMTQSPSSLSASVGDRVTITCRASQDIGLNLLWYQQKPGKAPTLLIYWSSMLQSGVPSRFSGSGSGTDFTLTISSLQPEDFATYYCQQGRMRPFTFGQGTKVEIKR
B18: 1h-207 (other)
VL: B3 VL with A32S, N34A, R50H, R51S, H53G, I91T, T94R, Y96F
B19: 1h-90 (other)
VL: B12 VL with S28T, K31H, M34V, A51S, M53H, S91T, E103K
B20: 1h-86 (other)
VL: B17 VL with L31Q, N32S, L34V, T45K, S51A, G91V, R92M, M93R
B21: 1h-109 (other)
VL: B17 VL with L31A, N32S, T45K, W50F, G91S, R92G
B22: 1h-116 (other)
VL: DIQMTQSPSSLSASVGDRVTITCRASQSIYPFLEWYQQKPGKAPRLLIYFTSRLQSGVPSRFSGSGSGTDFTLTISSLQPEDFATYYCQQNATNPATFGQGTKVEIKR
B23: 1h-239-815 (other)
VL: B22 VL with S28P, Y30W, R45K, Q89L, A92V, G99S
B24: 1h-239-871 (other)
VL: B22 VL with R45K, Q89L, A92V, T93A, G99S
B25: 1h-239-833 (other)
VL: B22 VL with R45K, Q55R, S56A, Q89L, A92V, G99S
B26: 1h-239-824 (other)
VL: B22 VL with R45K, Q55R, S56Q, Q89L, A92V, G99S
B27: 1h-239-828 (other)
VL: B22 VL with R45K, Q55R, S56E, Q89L, A92V, G99S
B28: 1h-239-856 (other)
VL: B22 VL with R45K, Q55R, S56H, Q89L, A92V, G99S
B29: 1h-239-819 (other)
VL: B22 VL with S28A, Y30W, R45K, Q89L, A92V, G99S
B30: 1h-239-838 (other)
VL: B22 VL with R24Q, R45K, Q55A, S56R, Q89L, A92V, G99S, K103R
B31: 1h-239 (other)
VL: B22 VL with R45K
B32: 1h-239-817 (other)
VL: B22 VL with Q27K, S28P, R45K, Q89L, A92V, G99S
B33: 1h-239-832 (other)
VL: B22 VL with R45K, R53Y, Q55R, S56E, Q89L, A92V, G99S
B34: 1h-239-859 (other)
VL: B22 VL with R45K, T51S, R53M, Q55A, Q89L, A92V, G99S
B35: 1h-239-870 (other)
VL: B22 VL with R45K, Q89L, A92V, T93M, N94M, G99S
B36: 1h-239-829 (other)
VL: B22 VL with R45K, T51S, Q55A, Q89L, A92V, G99S
B37: 1h-239-857 (other)
VL: B22 VL with R45K, Q55A, S56A, Q89L, A92V, T97A, G99S
B38: 1h-239-837 (other)
VL: B22 VL with R45K, Q55A, Q89L, A92V, G99S
B39: 1h-239-840 (other)
VL: B22 VL with R45K, T51A, Q55A, Q89L, A92V, G99S
B40: 1h-239-847 (other)
VL: B22 VL with R45K, Q55A, S56Y, Q89L, A92V, G99S, K107R
B41: 1h-239-809 (other)
VL: B22 VL with Q27R, S28P, Y30W, R45K, Q89L, A92V, G99S
B42: 1h-239-849 (other)
VL: B22 VL with R45K, R53K, Q55T, S56R, T69A, S77N, Q89L, A92V, G99S
B43: 1h-239-816 (other)
VL: B22 VL with Q27R, S28T, R45K, Q89L, A92V, G99S
B44: 1h-239-851 (other)
VL: B22 VL with Q27R, S28N, R45K, Q89L, A92V, G99S
B45: 1h-239-807 (other)
VL: B22 VL with Q27R, S28A, Y30W, R45K, Q89L, A92V, G99S
B46: 1h-239-869 (other)
VL: B22 VL with R45K, Q89L, A92V, T93Q, N94M, G99S
B47: 1h-239-804 (other)
VL: B22 VL with R45K, Q89L, A92V, T93S, N94M, G99S

Molecular target: human CD28 (human, UniProt P10747 19-220)
Assay: cell-based or functional assay

| Luciferase assay (EC50) | MLR assay (EC50) | Binder |
| --- | --- | --- |
| 4100 nM | – | B1 |
| 570 nM | 1800 nM | B2 |
| 1900 nM | 2700 nM | B3 |
| 1900 nM | – | B4 |
| 62 nM | 550 nM | B5 |
| 1700 nM | – | B6 |
| 1300 nM | 1700 nM | B7 |
| 3300 nM | – | B8 |
| 322 nM | – | B9 |
| 3800 nM | 3200 nM | B10 |
| 685 nM | 2000 nM | B11 |
| 1500 nM | – | B12 |
| 880 nM | – | B13 |
| 775 nM | 850 nM | B14 |
| 775 nM | – | B15 |
| 530 nM | – | B16 |
| 1900 nM | – | B17 |
| 2600 nM | – | B18 |
| 1000 nM | – | B19 |
| 400 nM | – | B20 |
| 1000 nM | – | B21 |
| 2500 nM | 2400 nM | B22 |
| 10 nM | 6 nM | B23 |
| – | 3 nM | B24 |

| Luciferase assay (EC50) | MLR assay (EC50) | Binder |
| --- | --- | --- |
| 8 nM | 7 nM | B25 |
| 9 nM | 6 nM | B26 |
| 8 nM | 14 nM | B27 |
| 3 nM | 1 nM | B28 |
| 13 nM | 11 nM | B29 |
| 4 nM | 3 nM | B30 |
| 1300 nM | – | B31 |
| 7 nM | 9 nM | B32 |
| 12 nM | 11 nM | B33 |
| 5 nM | 4 nM | B34 |
| – | 3 nM | B35 |
| 10 nM | 11 nM | B36 |
| 3 nM | 1 nM | B37 |
| 9 nM | 14 nM | B38 |
| 9 nM | 10 nM | B39 |
| 8 nM | 5 nM | B40 |
| 6 nM | 4 nM | B41 |
| 13 nM | 10 nM | B42 |
| 11 nM | 13 nM | B43 |
| 5 nM | 4 nM | B44 |
| 7 nM | 6 nM | B45 |
| – | 2 nM | B46 |
| 5 nM | 3 nM | B47 |
